Patent US20040253234A1 (Kyowa Kirin, published 2004)
Residue numbers refer to the chain shown, from its start.

B1: anti-FGF-8 CDR-grafted antibody HV0LV3-1/CHO (antibody, V domains shown)
VH: QVQLVQSGAEVKKPGASVKVSCKASGYTFTDYYLNWVRQAPGQGLEWMGEIDPGSDSIYYNENLEGRVTITADTSTSTAYMELSSLRSEDTAVYYCARYGYSRYDVRFVYWGQGTLVTVSS
VL: DVVMTQSPLSLPVTPGEPASISCRSSQSLVHSNGRTYLEWYLQKPGQSPQVLIYKVSNRISGVPDRFSGSGSGTDFTLKISRVEAEDVGVYFCFQGSHVPYTFGQGTKVEIK
notes: CHO/DG44-derived; also called KM8036
B2: anti-FGF-8 CDR-grafted antibody HV0LV6 (antibody, V domains shown)
VH: B1 VH
VL: B1 VL with T14S, P15L, Q50K
notes: YB2/0-derived, vector pKANTEX1334HV0LV6 (from pKANTEX93, human constant regions); also called KM8037
B3: anti-FGF-8 chimeric antibody KM3034 (antibody, V domains shown)
VH: QVQLQQSGAEVARPGASVKLSCKASGYTFTDYYLNWVKQRSGQGLEWIGEIDPGSDSIYYNENLEGRATLTADKSSSTAYMQLNSLTSEDSAVYFCARYGYSRYDVRFVYWGQGTLVTVST
VL: B1 VL with V3L, S7T, T14S, P15L, E17D, P18Q, Q50K, V88L, Q105G, V109L
notes: Human chimeric antibody with human gamma1 CH and human kappa CL (vector pKANTEX1334, from pKANTEX93), expressed in CHO/DG44 cells; also called CHO/DG44-derived anti-FGF-8 chimeric antibody
B4: anti-FGF-8 chimeric antibody KM3334 (antibody, V domains shown)
VH: B3 VH
VL: B1 VL with V3L, S7T, T14S, P15L, E17D, P18Q, Q50K, V88L, Q105G, V109L
notes: Same expression vector pKANTEX1334 as KM3034 (human gamma1 / kappa constant regions), expressed in YB2/0 cells; also called KiM3334; YB2/0-derived anti-FGF-8 chimeric antibody
B5: anti-FGF-8 CDR-grafted antibody HV0LV0 (antibody, V domains shown)
VH: B1 VH
VL: B1 VL with V2I, V51L, F92Y
notes: YB2/0-derived, vector pKANTEX1334HV0LV0 (from pKANTEX93, human constant regions)
B6: anti-FGF-8 CDR-grafted antibody HV0LV6/CHO (antibody, V domains shown)
VH: B1 VH
VL: B1 VL with T14S, P15L, Q50K
notes: CHO/DG44-derived, vector pKANTEX1334HV0LV6; also called KM8034
B7: anti-FGF-8 CDR-grafted antibody HV0LV0/CHO (antibody, V domains shown)
VH: B1 VH
VL: B1 VL with V2I, V51L, F92Y
notes: CHO/DG44-derived, vector pKANTEX1334HV0LV0
B8: anti-FGF-8 CDR-grafted antibody HV0LV4-3/CHO (antibody, V domains shown)
VH: B1 VH
VL: B1 VL with V2I, T14S, P15L
notes: CHO/DG44-derived; also called KM8035
B9: anti-FGF-8 CDR-grafted antibody HV6LV6 (antibody, V domains shown)
VH: B1 VH with K12A, K13R, A40R, P41S, M48I, Y95F
VL: B1 VL with T14S, P15L, Q50K
notes: YB2/0-derived, vector pKANTEX1334HV6LV6 (from pKANTEX93, human constant regions)
B10: anti-FGF-8 CDR-grafted antibody HV0LV3-3/CHO (antibody, V domains shown)
VH: B1 VH
VL: B1 VL with V2I, T14S, P15L, F92Y

Assays:
[1] = molecular target: T1, C-terminus-biotin labeled compound 1 (an N-terminus peptide of FGF-8; SEQ ID NO:15) (human, C-terminus-biotin labeled); assay: BIAcore 2000, C-terminus-biotin labeled FGF-8 peptide on SA chip, antibody as analyte, RU compared
T1 construct: also called FGF-8 peptide
T1 peptide: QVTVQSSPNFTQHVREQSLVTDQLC
Procedure: In order to examine the activity of various anti-FGF-8 CDR-grafted antibodies obtained in the item 5 of Example 3 to bind to FGF-8 in more detail, activities of various anti-FGF-8 CDR-grafted antibodies to bind to FGF-8 were measured and compared as follows by using BIAcore 2000 (manufactured by BIACORE). The CHO/DG44-derived anti-FGF-8 chimeric antibody KM3034 obtained in the item 3(1) of Example 1 was used as a positive control.
Hereinbelow, HBS-EP (manufactured by Pharmacia) was used as the buffer solution for dilution of samples and during the measurement. First, a sensor tip SA (manufactured by BIACORE) was set, and 5 μl of a C-terminus-biotin labeled compound 1 (an N-terminus peptide of FGF-8; SEQ ID NO:15) prepared to a solution of 0.05 μg/ml was added thereto at a flow rate of 20μl/minute. Thereafter, the tip surface was washed by adding 5 μl of 10 mmol/l Glycine-HCl buffer (pH 1.5) continuously twice. Immobilized amount of the FGF-8 peptide was 35 RU.
To the FGF-8 peptide immobilized flow cell, 60 μl of each antibody solution was added at a flow rate of 20 μl/minute, and then the dissociation reaction was monitored for 3 minutes. After the dissociation reaction, the tip surface was regenerated by adding 20 μl of 10 mmol/l Glycine-HCl buffer (pH 1.5) continuously twice. This cycle was carried out for antibody solutions of various concentrations (50 to 1.85 μg/ml), and a sensorgram at each concentration was obtained. The sensorgram of each antibody was made into a sensorgram of specific reaction by subtracting a sensorgram obtained using a chimeric antibody KM871 for GD3 [Cancer Immunol. Immunother., 36, 373 (1993)] as a negative control.

[2] = molecular target: T2, BSA-compound 1 conjugate (human FGF-8 peptide Compound 1, SEQ ID NO:15, conjugated to bovine serum albumin) (human, conjugated to bovine serum albumin through SMCC); assay: ELISA, plate-coated BSA-compound 1 conjugate, anti-human IgG-peroxidase detection
T2 construct: The BSA carrier is not written as a chain
T2 peptide: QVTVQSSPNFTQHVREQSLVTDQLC
Procedure: (§1) The conjugate prepared in the above was dispensed at 50 μl/well into a 96 well plate for ELISA (manufactured by Greiner) at a concentration of 0.5 to 1.0 μg/ml and allowed to stand for adsorption overnight at 4° C. After washing with PBS, 1% BSA-containing PBS (BSA-PBS) was added at 100 μl/well and allowed for blocking of remaining active groups to react at room temperature for 1 hour. After washing each well with 0.05% Tween-containing PBS (Tween-PBS), culture supernatants of transformants or purified antibodies were added at 50 μl/well and allowed to react at room temperature for 1 hour. After the reaction, each well was washed with Tween-PBS and then a peroxidase-labeled goat anti-human IgG (H & L) antibody solution (manufactured by American Qualex) diluted 3,000 to 6,000-folds with BSA-PBS was added as a secondary antibody solution at 50 μl/well and allowed to react at room temperature for 1 hour. After the reaction and subsequent washing with Tween-PBS, an ABTS substrate solution [a solution prepared by dissolving 0.55 g of 2,2′-azinobis(3-ethylbenzothiazoline-6-sulfonic acid) ammonium in 1 L of 0.1 M citrate buffer (pH 4.2) and adding 1 μl/ml hydrogen peroxide just before use] was added at 50 μl/well for color development, and the reaction was stopped by adding 5% SDS solution at 50 µl/well. Thereafter, absorbance at 415 nm (OD415) was measured.
The activity of various anti-FGF-8 CDR-grafted antibodies obtained in the item 4 of Example 2 to bind to FGF-8 was measured by the ELISA described in the item 2(6) of Example 1. The YB2/0-derived anti-FGF-8 chimeric antibody KM3334 obtained in the item 3(2) of Example 1 was used as a positive control.

[3] = molecular target: T2, BSA-compound 1 conjugate (human FGF-8 …); assay: ELISA, plate-coated BSA-compound 1 conjugate, anti-human IgG-peroxidase detection; positive control
Procedure: as §1, with “After the reaction and subsequent washing with Tween-PBS, an ABTS substrate solution [a solution prepared by dissolving 0.55 g of 2,2′-azinobis(3-ethylbenzothiazoline-6-sulfonic acid) ammonium in 1 L of 0.1 M citrate buffer (pH 4.2) and adding 1 μl/ml hydrogen peroxide just before use] was added at 50 μl/well for color development, and the reaction was stopped by adding 5% SDS solution at 50 µl/well.” left out
The activity of various anti-FGF-8 CDR-grafted antibodies obtained in the item 4 of Example 2 to bind to FGF-8 was measured by the ELISA described in the item 2(6) of Example 1. […]

[4] = molecular target: T3, FGF-8 (manufactured by R&D) (UniProt P55075-3 23-215, limits assumed); assay: cell-based or functional assay
T3 sequence (looked up): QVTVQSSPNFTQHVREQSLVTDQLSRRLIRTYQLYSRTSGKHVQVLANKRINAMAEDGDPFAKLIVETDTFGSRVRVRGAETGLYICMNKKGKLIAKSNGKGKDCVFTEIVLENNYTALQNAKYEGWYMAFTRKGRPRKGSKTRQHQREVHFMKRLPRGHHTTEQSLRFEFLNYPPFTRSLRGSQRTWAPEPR

Binder	binding result [1]	binding result [2]	also measured
B1	binds	–	–
B2	–	binds	–
B3	binds	–	–
B4	–	–	binding result [3]: binds
B5	–	binds	–
B6	binds	–	–
B7	binds	–	–
B8	binds	–	FGF-8 neutralization activity (FGF-8-dependent growth of SC-3 cells) [4]: ~0.5 fold of the activity of KM3034
B9	–	binds	–
B10	–	–	FGF-8 neutralization activity (FGF-8-dependent growth of SC-3 cells) [4]: ~0.5 fold of the activity of KM3034
